Measurements published in publication doi:10.64898/2025.12.24.696337, “A Broadly Conserved Protective Epitope on the Lyme Disease Vaccine Antigen, OspA” (bioRxiv, 2025).
Substitutions are numbered along the chain they refer to.

B1: 221-5, recombinant human monoclonal IgG1 (antibody, V domains shown)
VH: EVQLVQSGAEVKKPGESLKISCKGSGYSFTSYWIGWVRQMPGKGLEWMGIIYPGDSDTRYSPSFQGQVTISADKSISTAYLQWSSLKASDTAMYYCARHLGIDYFFGMDVWGQGTTVTVSS
VL: EIVLTQSPATLSLSPGERATLSCRASQSVSSYLAWYQQKPGQAPRLLIYDASTRDTGIPARFSGSGSGTDFTLTISSLEPEDFAVYYCQHHSNWYTFGQGTKLEIK
notes: rest human IgG1 constant region; IgG1; VH unmutated from germline HV5-51, VL derived from KV3-11; also called Class I Bin 1 mAb; source: Expi293, transiently transfected with VH and VL plasmids, purified (Protein A)
B2: 221-11, recombinant human monoclonal IgG1 (antibody, V domains shown)
VH: EVQLVQSGAEVKKPGESLKISCQSSGYRFTIYWIGWVRQMPGKGLEWMGIIWPGDSDTRYSPSFQGQVTISADKSISTAYLQWSSLKASDTAMYYCVRGIGRYSNWFLDYWGQGTLVTVSS
VL: AIQLTQSPSSLSASVGDRVTITCRASQGFSSALAWYQQKPGKAPKLLIYDASSLESGVPSRFSGSGSGTDFTLTISSLQPEDFATYYCQQFNSYPLTFGGGTKVEIK
notes: rest human IgG1 constant region; IgG1; VH germline HV5-51, VL germline KV1-13; also called Class II Bin 1 mAb; source: Expi293, transiently transfected with VH and VL plasmids, purified (Protein A)
B3: 227-1, recombinant human monoclonal IgG1 (antibody, V domains shown)
VH: EVQLVQSGAEVKMPGESLKISCEVSGYSFTSYWIGWVRQMPGKGLEWMGIIYPGDSDTRYSPSFQGQVTISADKSISTAYLQWSSLKASDTAMYYCTRSISRSGPGFSLSWFFDYWGQGTLVTVSS
VL: B2 VL with F29I, S31N, S56R, S67F, T85I, S93G, Y94F, L96N, G100Q, K103R
notes: rest human IgG1 constant region; IgG1; VH germline HV5-51, VL germline KV1-13; also called Class III Bin 1 mAb; source: Expi293, transiently transfected with VH and VL plasmids, purified (Protein A)
B4: 857-2, recombinant human monoclonal IgG1 (antibody, V domains shown)
VH: EVQLVQSGEEVKKPGESLKISCKGSGYKFSSYWIGWVRQMPGKGLEWMGIIFPGDSDKRYSPSFQGQVTISADKSISTVYLQWSSLKASDTAMYYCARHITTHTYRGFFDFWGQGTLVTVSS
VL: AIQLTQSPSSLSASVGDRVTITCRASQDISSALAWYQQKPGKAPKLLIYDVSSLESGVPSRFSGSGSGTDFTLTISSLQPEDFATYYCQQFNGYPHRLTFGGGTKVEIK
notes: rest human IgG1 constant region; IgG1; VH germline HV5-51, VL germline KV1-13; also called mAb 857-2; Class I Bin 1 mAb; source: Expi293, transiently transfected with VH and VL plasmids, purified (Protein A)

Experiments:
[1] = target: T1, Recombinant OspA serotype 1 (provided by Moderna) (Borreliella burgdorferi, strain not …, UniProt P0CL66); assay: microsphere immunoassay (MIA); recombinant OspA ST1-7 coupled to Magplex-C microspheres; serial dilutions of mAb in PBS, 2% BSA, pH 7.4, 1 h at room temperature; PE goat anti-human IgG Fc; details: both partners purified
T1 construct: OspA serotype 1; also called recombinant OspA ST1; ST 1; source: E. coli, purified; provided by Dr. Meredith Finn (Moderna)
T1 sequence (P0CL66 17-273): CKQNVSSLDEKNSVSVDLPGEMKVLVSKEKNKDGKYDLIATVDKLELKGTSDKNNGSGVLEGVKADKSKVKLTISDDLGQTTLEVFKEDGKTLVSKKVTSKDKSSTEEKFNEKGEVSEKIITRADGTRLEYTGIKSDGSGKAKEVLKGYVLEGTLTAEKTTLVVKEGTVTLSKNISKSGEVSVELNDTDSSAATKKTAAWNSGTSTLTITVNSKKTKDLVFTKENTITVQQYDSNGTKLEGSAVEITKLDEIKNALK

[2] = target: T2, Recombinant OspAST1 (residues 18-273) from B. burgdorferi B31 (Borreliella burgdorferi B31, UniProt P0CL66); assay: BLI; Octet RED96e; mAb captured on AHC sensors, three-fold dilution series of OspA (21.58 nM to 0.089 nM); PBS, 0.1% BSA, 0.01% Tween20; global 1:1 model; details: both partners purified
T2 construct: Outer surface protein A (OspA) serotype 1, B. burgdorferi B31, residues 18 to 273; Used for the crystal structures; also called OspA (18-273); outer surface protein A serotype 1; not shown: His10, N-terminal, cleaved; SUMO, N-terminal, cleaved

[3] = target: T3, OspA serotype 2 (B. afzelii PKo allele) on B. burgdorferi HB19-R1 reporter strain (Borreliella afzelii PKo allele, in B. …, UniProt P0A3N7); assay: flow cytometry on cells; live B. burgdorferi HB19-R1 reporter strains expressing OspA ST1-7 probed with 10 µg/ml mAb, then Alexa 647-labeled goat anti-human IgG; details: one partner purified
T3 construct: OspA serotype 2, allele of B. afzelii PKo; also called OspAST2; OspA ST2; source: expressed from a reporter plasmid in B. burgdorferi HB19-R1, on live cells
T3 sequence (P0A3N7 17-273): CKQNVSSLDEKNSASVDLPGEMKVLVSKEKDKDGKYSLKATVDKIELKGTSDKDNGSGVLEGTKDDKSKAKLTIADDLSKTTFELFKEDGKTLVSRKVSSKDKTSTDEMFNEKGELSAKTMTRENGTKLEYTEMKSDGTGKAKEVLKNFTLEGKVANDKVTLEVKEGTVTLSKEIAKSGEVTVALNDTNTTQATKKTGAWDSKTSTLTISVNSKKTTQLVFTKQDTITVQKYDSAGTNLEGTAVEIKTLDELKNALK

[4] = target: T4, OspA serotype 3 (B. garinii PBr allele) on B. burgdorferi HB19-R1 reporter strain (Borreliella garinii PBr allele, in B. …, UniProt B8F1J0, strain); assay: as above; details: one partner purified
T4 construct: OspA serotype 3, allele of B. garinii PBr; also called OspAST3; OspA ST3; source: expressed from a reporter plasmid in B. burgdorferi HB19-R1, on live cells

[5] = target: T5, OspA serotype 4 (B. bavariensis PBi allele) on B. burgdorferi HB19-R1 reporter strain (Borreliella bavariensis PBi allele, in …, UniProt Q6LBF1, strain); assay: as above; details: one partner purified
T5 construct: OspA serotype 4, allele of B. bavariensis PBi; also called OspAST4; OspA ST4; source: expressed from a reporter plasmid in B. burgdorferi HB19-R1, on live cells

[6] = target: T6, Native OspA serotype 3 on B. garinii PBr cells (Borreliella garinii PBr, UniProt B8F1J0, strain); assay: flow cytometry on cells; native Bbsl strains (primary isolates, ST1-7) probed with mAb; details: one partner purified
T6 construct: OspA serotype 3 of B. garinii PBr, native on the bacterial surface; also called native OspA ST3; source: endogenous, B. garinii PBr cells

| Binder | binding result [1] | Kd [2] [nM] | MFI [3] | MFI [4] | MFI [5] | binding result [4] | binding result [6] |
| --- | --- | --- | --- | --- | --- | --- | --- |
| B1 | binds | 0.52 | > 4000 | > 4000 | > 4000 | – | – |
| B2 | – | 0.35 | – | – | – | binds | – |
| B3 | – | 1.7 | – | – | – | – | – |
| B4 | – | 0.3 | > 4000 | > 4000 | > 4000 | – | binds |
